The target in test [1] is KKAA construct (myc-tagged ERGIC-53 with its cytoplasmic tail mutated to R2A6KKAA) (human).
The target of test [2] is T1, KKFF (myc-tagged wild-type ERGIC-53) (human), P49257.
T1 chain: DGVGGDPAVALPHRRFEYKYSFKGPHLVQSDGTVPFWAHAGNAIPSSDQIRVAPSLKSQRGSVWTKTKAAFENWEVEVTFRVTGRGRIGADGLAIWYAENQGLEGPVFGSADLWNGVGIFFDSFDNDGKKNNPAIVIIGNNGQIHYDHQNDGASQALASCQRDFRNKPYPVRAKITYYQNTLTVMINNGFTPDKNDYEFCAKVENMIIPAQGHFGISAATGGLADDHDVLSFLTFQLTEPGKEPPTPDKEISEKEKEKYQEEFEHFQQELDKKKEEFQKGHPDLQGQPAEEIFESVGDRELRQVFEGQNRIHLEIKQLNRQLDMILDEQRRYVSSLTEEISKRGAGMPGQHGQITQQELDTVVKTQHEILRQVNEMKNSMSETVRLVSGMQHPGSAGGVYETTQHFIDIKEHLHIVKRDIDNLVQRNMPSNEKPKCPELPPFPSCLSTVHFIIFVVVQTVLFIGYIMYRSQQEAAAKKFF
To be noted: remark: other sources report otherwise.

Values joined by “and” are separate entries in the source; they are usually repeats but may differ in a detail not shown here. Equal entries are not always repeated.

The record followed here is article PMC2133042.

The stoichiometry N is the number of molecules, sites or subunits per partner or assembly. For the molecule “KKAA construct (myc-tagged ERGIC-53 with its cytoplasmic tail mutated to R2A6KKAA) (natural protein)”, the stoichiometry N in test [1] is 2 and 6.

B1: KKFF (myc-tagged wild-type ERGIC-53), P49257 31-510 (natural protein)
chain: T1 chain
Regarding B1, the stoichiometry N in test [2] is 2 and 6.
